# Source: the supplement of paper PMC9170038
# Tested on: K4 kissing-loop RNA reporter
# Test: apparent KD of K4 kissing-loop reporter; higher = weaker reporter binding
# Details: Eterna round: R107
# Experimental: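 RNA-MaP round R107: designed RNA switches with theophylline, tryptophan, arginine or FMN aptamers are transcribed on-chip within common flanks. They are titrated with a labelled K4 kissing-loop RNA reporter in RNA-MaP buffer (100 mM Tris pH 7.5, 80 mM KCl, 4 mM MgCl2), without ligand or with the indicated ligand. Median apparent KD per design.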
# [1] = input ligand: theophylline 20 uM
# [2] = input ligand: tryptophan 2.4 mM
# 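Further: bound reporter read as fluorescence of individual clusters on recovered sequencing chips by microscopy, with normalized cluster intensities fitted with a binding model.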
Sequence,apparent KD of K4 kissing-loop reporter (input ligand: FMN 200 uM),apparent KD of K4 kissing-loop reporter (input ligand: arginine 13.2 mM),apparent KD of K4 kissing-loop reporter (input ligand: none),apparent KD of K4 kissing-loop reporter [1],apparent KD of K4 kissing-loop reporter [2]
GCAGUCAAUCAACCACGAAAGUGGAUGGAUACCAGCCCGAAACCGGGCCCUUGGCAGCCAGUGAUGUUGGAAGACUGCUUUAAAA [#SwitchBubble 15 #K4Late],974 nM,256 nM,607 nM,219 nM,337 nM
GCAGUGAUGUUGCAAAAUGUCUGUGGUAGUCGAGGACCGGUACGGCCGCCACUCGGUGAGAACCUGCUAAUACAUCGAUAAGUGA [IX],706 nM,580 nM,627 nM,810 nM,666 nM
GCAGUGAUGUUGCGCGGGUACGGUAGAGUGCGAGGACCGGUACGGCCGCCACUCGUACGGAACUGGCUAAUAUAUGGAUAGGUGA [V],496 nM,318 nM,446 nM,406 nM,243 nM
GCAGUGAUGUUGCUGAUGUACAGUGGGAUACGAGGACCGGUACGGCCGCCACUCGUACAGAACUUGUUAAUACAUCGAUAGGUGA [XIII],702 nM,759 nM,880 nM,837 nM,564 nM
GCAUCCUAUGCAGGAUAUUAGCAUUUGAGUGAUGUUCAGACUAGCGAAAGCUAGUCAAUUGCUGGUUAAGAAGGGCAUAGGAUGC,891 nM,750 nM,971 nM,902 nM,689 nM
GCCGUACGCAUGGAUACCAGCAAGCAUAGCAGGAAACUGCUAUGCACCAGUGAUGUUGGAUGCCCUUGGCAGCCAUGCGUACGGC,1250 nM,754 nM,926 nM,439 nM,1110 nM
GCCGUACGCAUGGAUACCAGCAUGCAUAUUAGCUAGUGAUGUUAGCGCUAUGCGAUGCUAUGCCCUUGGCAGCCAUGCGUACGGC,124 nM,108 nM,127 nM,247 nM,132 nM
GCCGUAGAUUGAAGGAGCGCCAUCUUACCAAGAGUGAUGUUCUUUGGUACCAUGUACAGCUGGCAGGUAGGUCGCAAUCUACGGC,192 nM,151 nM,173 nM,181 nM,169 nM
GCCGUAGAUUGAAGGAGCGCCGCGCAUGUCCCGCUUAGUGUAGUGAUGUUACAGUUUCAGCGGCAGGUAGGUCGCAAUCUACGGC,83.4 nM,83.3 nM,81.3 nM,77.2 nM,69.5 nM
GCCUACGAUGCAGGAUAUAGCUCGCGAGUGAUGUUCGCAGCUGUAUGGUAGUAAGCUUCCACGUGUCUAGAAGGGCAUCGUAGGC [#01 K4 FMN B Exclusion],131 nM,80.2 nM,93.6 nM,83.3 nM,88.7 nM
GCGCGGCACAGUGAUGUUGUGCCUCGGAGACGAGGACCGGUACGGCCGCCACUCGUCCGCGCAGCUGAGGCAAAAGCCUCGGCAA [Omei KL Tryp A SS B v4],382 nM,393 nM,473 nM,447 nM,128 nM
GCGCGUCAUGUCAGCGGUGACUACGUCGAUACCAGCAGGGAAACCUGCCCUUGGCAGCGACGCGCUGGAGUGAUGUUCCGACAGA [#2 Exclusion - Theophylline A Attempt #5 (HarryS)],218 nM,247 nM,192 nM,309 nM,176 nM
GCGCUUAAAUAAGGAUAUUACAGACUCAUCUACGAGUGAUGUUCGGUGCGCUGUGCACAGAGCCUGUAAGAAGGUAUAGCAUUGC [theeternabot_sameState_KL_FMN_B_41],1010 nM,716 nM,1180 nM,811 nM,861 nM
GCUAUGGUAGGAAGGAGCGCUUACUCAUUAAUAAGAGUGAUGUUCGAUAAUGAGUAUUUAUAGCAGGUAGGUCGCCUACUAUAGC [Arginine B K4 3],280 nM,221 nM,270 nM,247 nM,237 nM
GCUAUGGUAGGAAGGAGCGCUUAUUUAUUUUUAAGAGUGAUGUUCGUUAGUAGAUAUUUAAAGCAGGUAGGUCGCCUACUAUAGC [Arginine B K4 14],85.8 nM,124 nM,84 nM,120 nM,52 nM
GCUAUGGUAGGAAGGAGCGCUUGCUCGGUCAUAAGAGUGAUGUUCGAGACCGAGCAUUUAUAGCAGGUAGGUCGCCUACUAUAGC [Arginine B K4 7],310 nM,194 nM,200 nM,256 nM,250 nM
GCUCAGGAGUGAUGUUCCAAGUGGUGUUAACGAGGACCGGUACGGCCGCCACUCGAUACGGCCGGACCGUAGGAUAAACUAGAGC [Same State - Tryptophan A (Freestyle 11)],233 nM,175 nM,196 nM,280 nM,206 nM
GCUGCCAUGGCAGGAUAUAUAAAUGCUGAGUGAUGUUCUGCAUCAUAUGUCCCUGACCGCGGCGGUGUAGAAGGGCCAUGGCAGC,135 nM,93 nM,107 nM,97.1 nM,103 nM
GGAAAUCUUGCCGAUACCAGAUCGCGCGGCCAUUGCUAGUGAUGUUGGCAAUAAGUACUCAUCCCUUGGCAGCGGUAAGGCAGUG [theeternabot_sameState_KL_Theo_B_23],390 nM,293 nM,359 nM,195 nM,280 nM
GGAAGGAAGGAAACCAACCAACCAACCGAUACCAGCGGAAGAGAACGCCCUUGGCAGCGGAGAAAGCCAGUGAUGUUGGAAAGAA,324 nM,224 nM,402 nM,300 nM,318 nM
GGAAUGCUGUAAGGAUAUCUCGGACGGUUACUCCGUUUCUCGCGUGUAAGAAUCUGAGUGAUGUUUAGAGAAGGUACGCUGGUUA [theeternabot_exclusion_KL_FMN_B_21],178 nM,233 nM,240 nM,225 nM,149 nM
GGACACUAGGAAACUAGUGUCUCAACUGAAGGAGCGUGAAUAGUCACAGGUAGGUCGCAGUUUGUUAGUGAUGUUGACAUGAGUU [#16 K4 Arginine A Same State],302 nM,394 nM,514 nM,439 nM,277 nM
